According to patent US20070036810A1, “Cyclic amp response element activator proteins and uses related thereto” (priority 2003, published 2007):
“Also recorded” adds a separate entry of the source.

B1: K4: CREAP1 fragment, amino acids 1-580, SEQ ID NO 35, Flag fusion (protein)
chain: MATSNNPRKFSEKIALHNQKQAEETAAFEEVMKDLSLTRAARLQLQKSQYLQLGPSRGQYYGGSLPNVNQIGSGTMDLPFQPSGFLGEALAAAPVSLTPFQSSGLDTSRTTRHHGLVDRVYRERGRLGSPHRRPLSVDKHGRQADSCPYGTMYLSPPADTSWRRTNSDSALHQSTMTPTQPESFSSGSQDVHQKRVLLLTVPGMEETTSEADKNLSKQAWDTKKTGSRPKSCEVPGINIFPSADQENTTALIPATHNTGGSLPDLTNIHFPSPLPTPLDPEEPTFPALSSSSSTGNLAANLTHLGIGGAGQGMSTPGSSPQHRPAGVSPLSLSTEARRQQASPTLSPLSPITQAVAMDALSLEQQLPYAFFTQAGSQQPPPQPQPPPPPPPASQQPPPPPPPQAPVRLPPGGPLLPSASLTRGPQPPPLAVTVPSSLPQSPPENPGQPSMGIDIASAPALQQYRTSAGSPANQSPTSPVSNQGFSPGSSPQHTSTLGSVFGDAYYEQQMAARQANALSHQLEQFNMMENAISSSSLYSPGSTLNYSQAAMMGLTGSHGSLPDSQQLGYASHSGIPNIILT
modifications: Flag tag; human
B2: K5: CREAP1 fragment, amino acids 170-650, SEQ ID NO 36, Flag fusion (protein)
chain: ALHQSTMTPTQPESFSSGSQDVHQKRVLLLTVPGMEETTSEADKNLSKQAWDTKKTGSRPKSCEVPGINIFPSADQENTTALIPATHNTGGSLPDLTNIHFPSPLPTPLDPEEPTFPALSSSSSTGNLAANLTHLGIGGAGQGMSTPGSSPQHRPAGVSPLSLSTEARRQQASPTLSPLSPITQAVAMDALSLEQQLPYAFFTQAGSQQPPPQPQPPPPPPPASQQPPPPPPPQAPVRLPPGGPLLPSASLTRGPQPPPLAVTVPSSLPQSPPENPGQPSMGIDIASAPALQQYRTSAGSPANQSPTSPVSNQGFSPGSSPQHTSTLGSVFGDAYYEQQMAARQANALSHQLEQFNMMENAISSSSLYSPGSTLNYSQAAMMGLTGSHGSLPDSQQLGYASHSGIPNIILTVTGESPPSLSKELTSSLAGVGDVSFDSDSQFPLDELKIDPLTLDGLHMLNDPDMVLADPATEDTFRMDRL
modifications: Flag tag; human
B3: K3: CREAP1 fragment, amino acids 1-494, SEQ ID NO 34, Flag fusion (protein)
chain: MATSNNPRKFSEKIALHNQKQAEETAAFEEVMKDLSLTRAARLQLQKSQYLQLGPSRGQYYGGSLPNVNQIGSGTMDLPFQPSGFLGEALAAAPVSLTPFQSSGLDTSRTTRHHGLVDRVYRERGRLGSPHRRPLSVDKHGRQADSCPYGTMYLSPPADTSWRRTNSDSALHQSTMTPTQPESFSSGSQDVHQKRVLLLTVPGMEETTSEADKNLSKQAWDTKKTGSRPKSCEVPGINIFPSADQENTTALIPATHNTGGSLPDLTNIHFPSPLPTPLDPEEPTFPALSSSSSTGNLAANLTHLGIGGAGQGMSTPGSSPQHRPAGVSPLSLSTEARRQQASPTLSPLSPITQAVAMDALSLEQQLPYAFFTQAGSQQPPPQPQPPPPPPPASQQPPPPPPPQAPVRLPPGGPLLPSASLTRGPQPPPLAVTVPSSLPQSPPENPGQPSMGIDIASAPALQQYRTSAGSPANQSPTSPVSNQGFSPGSSPQHTS
modifications: Flag tag; human
B4: K2: CREAP1 fragment, amino acids 1-356, SEQ ID NO 33, Flag fusion (protein)
chain: MATSNNPRKFSEKIALHNQKQAEETAAFEEVMKDLSLTRAARLQLQKSQYLQLGPSRGQYYGGSLPNVNQIGSGTMDLPFQPSGFLGEALAAAPVSLTPFQSSGLDTSRTTRHHGLVDRVYRERGRLGSPHRRPLSVDKHGRQADSCPYGTMYLSPPADTSWRRTNSDSALHQSTMTPTQPESFSSGSQDVHQKRVLLLTVPGMEETTSEADKNLSKQAWDTKKTGSRPKSCEVPGINIFPSADQENTTALIPATHNTGGSLPDLTNIHFPSPLPTPLDPEEPTFPALSSSSSTGNLAANLTHLGIGGAGQGMSTPGSSPQHRPAGVSPLSLSTEARRQQASPTLSPLSPITQAVA
modifications: Flag tag; human

System: pCRE-Luc reporter (cyclic AMP response element)
Test: pCRE-Luc reporter assay of CREAP1 deletion fragments in Hela cells
Format: cell-based
Details: for Activity: Flag-CREAP1 deletion constructs co-transfected with pCRE-Luc in Hela cells, Dual-Glo Luciferase 40 hrs after transfection
Method: CREAP1 protein amino acids 1-170, 1-356, […], 1-580 and 170-650 are inserted into pFlag-CMV4 expression vector (Sigma, St. Louis, Mo.) by utilizing PCR strategy familiar to one of skill in the art. 10^4 Hela cells are split into each well of 96 well tissue culture plates. Cells are transfected 16 hours later with 100 ng of pCRE-Luc reporter construct, 30 ng of Renilla luciferase control plasmid together with 100 ng of pCMVSPORT6, pCMVSPORT-CREAP1 and different Flag-CREAP1 deletion fusion constructs respectively. Transfection is done with Fugene6 reagent (Roche Applied Biosciences) following the manufacturer's instructions. A Dual-Glo Luciferase assay (Promega) is conducted 40 hrs after transfection. Firefly luciferase counts are normalized to Renilla luciferase and plotted.
To dissect the functional domains within the CREAP1 molecule, CREAP1 protein fragments of amino acids 1-170, 1-356, 1-494, 1-580 and 170-650 were subcloned into pFlag-CMV4 vector by utilizing PCR based strategy and tested for function in a Dual Glo Luciferase assay as described above.

Molecule | Activity | Activity (listed as KS) | reduction of functional activity of CREAP1 (K2 compared with K4 (removal of amino acids 356-580)) [fold]
B1 | retains almost all wild type activity; also recorded: Fully active | – | –
B2 | lacked almost all stimulating activity | Inactive | –
B3 | Partially Active | – | –
B4 | Inactive | – | 10
